The Kd is the constant that tells how readily two partners part at equilibrium. Higher therefore signals a looser complex. As a reminder, the IC50 is the concentration needed to halve the response being measured.

One assay has as its target Asialofetuin (UniProt P12763). Kind of assay: ELISA; direct ELISA: ASF immobilised on microtiter plates, serial dilution of the galectin in EPBS (PBS with 2 mM EDTA, 50 µL/well); otherwise as the competitive ELISA (anti-His-tag-HRP detection). A general note: In an ELISA, binding on a coated surface is turned into a signal by an enzyme label.
Assay [1] addresses full-length recombinant human galectin-8, N-terminal His-tagged (human) (UniProt O00214). As to the kind of experiment: ELISA; competitive: ASF (0.1 μM in PBS) immobilised on microtiter plates; serial dilutions of inhibitor in EPBS (PBS with 2 mM EDTA) incubated 2 h with a constant galectin concentration ([…] Gal-1, Gal-3, Gal-4; 0.5 μM Gal-8, Gal-9); residual galectin on ASF detected with anti-His-tag-HRP.

Assay [2] has as its target His-tagged galectin-1 (C2S) (human). As to the kind of experiment: ELISA; competitive ELISA: ASF (0.1 µM in PBS) immobilised, serial dilutions of the neo-glycoprotein in EPBS incubated with […] Gal-1 or Gal-3 for 2 h; galectin left on ASF detected with anti-His-tag-HRP.

full-length recombinant human galectin-8, N-terminal His-tagged (human), sequence (O00214 whole entry): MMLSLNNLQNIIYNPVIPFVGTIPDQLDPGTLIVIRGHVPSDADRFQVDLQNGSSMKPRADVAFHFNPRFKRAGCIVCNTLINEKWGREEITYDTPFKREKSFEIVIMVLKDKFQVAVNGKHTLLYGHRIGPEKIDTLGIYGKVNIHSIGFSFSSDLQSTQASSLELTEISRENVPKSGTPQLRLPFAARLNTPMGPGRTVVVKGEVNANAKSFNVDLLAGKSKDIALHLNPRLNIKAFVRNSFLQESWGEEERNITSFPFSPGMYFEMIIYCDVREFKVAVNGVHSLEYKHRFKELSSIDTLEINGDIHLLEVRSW
His-tagged galectin-1 (C2S) (human), sequence (P09382 other isoform, or with tags, fused parts or gaps): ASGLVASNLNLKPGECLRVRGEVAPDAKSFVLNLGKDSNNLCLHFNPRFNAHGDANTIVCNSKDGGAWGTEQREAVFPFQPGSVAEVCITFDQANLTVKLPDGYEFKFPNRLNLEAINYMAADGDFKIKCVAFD
Asialofetuin, sequence (P12763 19-359): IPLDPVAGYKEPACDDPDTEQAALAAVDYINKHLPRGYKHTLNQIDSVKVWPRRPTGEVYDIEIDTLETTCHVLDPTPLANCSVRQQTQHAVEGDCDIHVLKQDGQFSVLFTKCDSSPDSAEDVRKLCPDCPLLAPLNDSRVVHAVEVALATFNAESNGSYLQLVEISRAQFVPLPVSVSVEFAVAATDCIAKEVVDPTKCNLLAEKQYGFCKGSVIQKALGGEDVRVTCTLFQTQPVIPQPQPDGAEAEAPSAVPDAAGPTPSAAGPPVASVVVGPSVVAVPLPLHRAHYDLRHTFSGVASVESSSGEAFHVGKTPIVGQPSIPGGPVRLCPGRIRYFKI

In turn, Gal-9-AVI-link (natural protein) registered a Kd with Asialofetuin of 0.18 µM.

With “neo-glycoprotein NGP5 (LN2-Lac-HSA) (from UniProt P02768 25-609)”, in assay [1], the IC50 was found to be 0.2 µM.

As for “Neo-glycoprotein NGP8 (LDN-LN2-HSA) (from UniProt P02768 25-609)”, the IC50 in assay [2] was more than 20 µM.

In assay [2], “Neo-glycoprotein NGP4 (LN1-LN2-HSA) (from UniProt P02768 25-609)” had an IC50 of more than 20 µM.

Regarding Gal-8-AVI-link (natural protein), the Kd with Asialofetuin is 0.32 µM.

Consider “neo-glycoprotein NGP4 (LN1-LN2-HSA) (from UniProt P02768 25-609)”, for which the IC50 in assay [1] was 0.6 µM.

For the substance “neo-glycoprotein NGP1 (Lac-HSA) (from UniProt P02768 25-609)”, the IC50 in assay [1] was more than 20 µM.

“neo-glycoprotein NGP2 (LN2-HSA) (from UniProt P02768 25-609)”: the IC50 in assay [1] is more than 20 µM.

On to “neo-glycoprotein NGP7 (LDN-Lac-HSA) (from UniProt P02768 25-609)”, for which the IC50 in assay [1] stood at 0.4 µM.

Turning to “Neo-glycoprotein NGP1 (Lac-HSA) (from UniProt P02768 25-609)”, in assay [2], the IC50 is more than 20 µM.

Source of the values: PMC12344693, “Human Milk Oligosaccharides Multivalently Presented on Defined Synthetic Neo-Glycoproteins Are Nanomolar Ligands of Tandem-Repeat Galectins” (Biomacromolecules, 2025).
